Assay results: article PMC4140278

Assays:
[1] = biological target: arrestin-3 (β-arrestin-2) (UniProt P32121); experiment: BRET, arrestin-3-Rluc / FLAG-FFA4-eYFP, 5 min; conditions: for percent of reference: reference: wild type
[2] = biological target: arrestin-3 (β-arrestin-2) (UniProt P32121); experiment: kinetic BRET, arrestin-3-Rluc / FFA4-eYFP; conditions: reference: wild type; sites T347,S350,S357

FFA4 (GPR120) (from UniProt Q5NUL3) S360A
percent of reference ([1]; sites S360): 85%

FFA4 (GPR120) (from UniProt Q5NUL3) TSS/AAA
other: t½ of association [2]: weaker; reference 46 ± 6
percent of reference ([1]; sites T347,S350,S357): 77%

FFA4 (GPR120) (from UniProt Q5NUL3) TSS/AAA-DD/AA
other: Emax, % of wild type ([1]; reference: DD/AA, sites T347,S350,S357): 40%

FFA4 (GPR120) (from UniProt Q5NUL3) TSSS/AAAA
other: Emax, % of wild type ([1]; reference: TSS/AAA, sites S360): weaker; reference 77 ± 2
percent of reference ([1]; sites T347,S350,S357,S360): 38%

FFA4 (GPR120) (from UniProt Q5NUL3) TTSS/AAAA
other: Emax, % of wild type ([1]; reference: TSS/AAA, sites T349): same; reference 77 ± 2
percent of reference ([1]; sites T347,T349,S350,S357): 84%

FFA4 (GPR120) (from UniProt Q5NUL3) TTSSS/AAAAA
other: Emax, % of wild type ([1]; reference: TSS/AAA, sites T349,S360): weaker; reference 77 ± 2
other: Emax, % of wild type ([1]; reference: TSSS/AAAA, sites T349): same; reference 38 ± 2
other: Emax, % of wild type ([1]; reference: TTSS/AAAA, sites S360): weaker; reference 84 ± 7
percent of reference ([1]; sites T347,T349,S350,S357,S360): 42%

FFA4 (GPR120) (from UniProt Q5NUL3) TTSSS/AAAAA-DD/AA
other: Emax, % of wild type ([1]; reference: DD/AA, sites T347,T349,S350,S357,S360): 21%

FFA4 (GPR120) (from UniProt Q5NUL3) TTSSS/AAAAA-EDD/AAA
other: Emax, % of wild type ([1]; reference: EDD/AAA, sites T347,T349,S350,S357,S360): weaker; reference 69 ± 7

FFA4 (GPR120) (from UniProt Q5NUL3) TUG-891 10 µM, 5 min
other: milli-BRET units ([1]; reference: vehicle, sites T347,T349,S350,S357,S360): stronger; reference 63 ± 6
